Assay results: article PMC7866390, “A Novel Multiprotein Bridging Factor 1-Like Protein Induces Cyst Wall Protein Gene Expression and Cyst Differentiation in Giardia lamblia”

T1: MBF1 (Giardia lamblia, UniProt A8BZ03 1-107)
T1 sequence: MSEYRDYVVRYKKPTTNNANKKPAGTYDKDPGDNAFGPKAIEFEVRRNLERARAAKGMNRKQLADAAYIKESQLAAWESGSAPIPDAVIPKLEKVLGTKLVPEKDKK

B1: cwp1-90/-46 (dsDNA)
DNA 1: CTGGCTAACAGTCTACAGTCTACAATTTACAGTATACAATCTACA
DNA 2: TGTAGATTGTATACTGTAAATTGTAGACTGTAGACTGTTAGCCAG
B2: poly(A) (dsDNA)
DNA 1: AAAAAAAAAAAAAAAAAAAAAAA
DNA 2: TTTTTTTTTTTTTTTTTTTTTTT
B3: myb2-30/-1 (dsDNA)
DNA 1: TACTAAAATAATAATTACTCTGTACTGCTA
DNA 2: TAGCAGTACAGAGTAATTATTATTTTAGTA
B4: ran-51/-20 (dsDNA)
DNA 1: TAAAATAAATTAAATCGAAATTAAAACTTTAA
DNA 2: TTAAAGTTTTAATTTCGATTTAATTTATTTTA
B5: poly(A) with T insertion (dsDNA)
DNA 1: AAAAAAAAAAATAAAAAAAAAAA
DNA 2: TTTTTTTTTTTATTTTTTTTTTT
B6: poly(A) with TT insertion (dsDNA)
DNA 1: AAAAAAAAAAATTAAAAAAAAAA
DNA 2: TTTTTTTTTTAATTTTTTTTTTT
B7: 18S-30/-1 (dsDNA)
DNA 1: GGCGCCCGGCCCGCGGCGCCCGCGCCCGGC
DNA 2: GCCGGGCGCGGGCGCCGCGGGCCGGGCGCC
B8: cwp2-30/+8 (dsDNA)
DNA 1: CAGCAGCTCAACAGTGGCTGGGAAAATAAAATGATCGC
DNA 2: GCGATCATTTTATTTTCCCAGCCACTGTTGAGCTGCTG
B9: cwp1-45/-1 (dsDNA)
DNA 1: GTTTACAACTCTCAGATCAAGAAACACAGAAATAAAATATCAGGG
DNA 2: CCCTGATATTTTATTTCTGTGTTTCTTGATCTGAGAGTTGTAAAC
B10: cwp2-60/-31 (dsDNA)
DNA 1: TAGACTGATGCTGTAGAGGTCAACAGATAA
DNA 2: TTATCTGTTGACCTCTACAGCATCAGTCTA
B11: cwp3-60/-31 (dsDNA)
DNA 1: GTAGACTTTGAGTTACTTAGCTCTACAGTT
DNA 2: AACTGTAGAGCTAAGTAACTCAAAGTCTAC

How the values were obtained:
[1] = biological target: T1, MBF1; assay: EMSA; EMSA, 5 ng purified protein, 5'-end-labeled ds oligonucleotides, 6% polyacrylamide gel; buffer, salt, pH and temperature not given (cited to ref 19); conditions: protein: recombinant, tags: C-terminal V5 and His (pET101/D-TOPO)
[2] = biological target: T1, MBF1; assay: EMSA; supershifted by anti-V5-HRP; competed by 200-fold cold cwp1-45/-1; EMSA, 5 ng purified protein, 5'-end-labeled ds oligonucleotides, 6% polyacrylamide gel; buffer, salt, pH and temperature not given (cited to ref 19); conditions: protein: recombinant; tags: C-terminal V5 and His (pET101/D-TOPO); label: 5'-32P

| Binder | binding result ([1]; label: 5'-32P) | other results |
| --- | --- | --- |
| B1 | binds | – |
| B2 | binds | – |
| B3 | binds | – |
| B4 | binds | – |
| B5 | binds | – |
| B6 | binds | – |
| B7 | – | binding result [1]: no binding |
| B8 | binds | – |
| B9 | – | binding result [2]: binds |
| B10 | binds | – |
| B11 | binds | – |
